Laboratory results as given in PMC4931344, “The FNIP co-chaperones decelerate the Hsp90 chaperone cycle and enhance drug binding” (Nature Communications, 2016).

Legend:
[1] = molecular target: FNIP1-D–His6 labelled with Texas Red Maleimide (UniProt Q8TF40); experiment: fluorescence polarisation; fluorescence anisotropy; 1 μM Texas Red-labelled FNIP1-D, Hsp90α titrated; 50 mM Tris pH 7.2, 150 mM NaCl, 1 mM TCEP, 4 mM MgCl2, with or without 1 mM ATP, ADP or AMPPNP; single-site binding equation
[2] = molecular target: Hsp90α–FLAG full-length (wild type) (human) (UniProt P07900)
[3] = molecular target: T1, FLAG–FNIP1 (bacterially expressed and purified) (UniProt Q8TF40 1-1166); experiment: pull-down; His6-tagged protein bound to Ni-NTA agarose, incubated with 10 ng pure FLAG–FNIP1; immunoblot; settings: both partners purified
T1 construct: FNIP1; bacterial expression from pRSET-A; also called recombinant FNIP1; source: bacterially expressed and purified (a small amount)
T1 sequence (looked up): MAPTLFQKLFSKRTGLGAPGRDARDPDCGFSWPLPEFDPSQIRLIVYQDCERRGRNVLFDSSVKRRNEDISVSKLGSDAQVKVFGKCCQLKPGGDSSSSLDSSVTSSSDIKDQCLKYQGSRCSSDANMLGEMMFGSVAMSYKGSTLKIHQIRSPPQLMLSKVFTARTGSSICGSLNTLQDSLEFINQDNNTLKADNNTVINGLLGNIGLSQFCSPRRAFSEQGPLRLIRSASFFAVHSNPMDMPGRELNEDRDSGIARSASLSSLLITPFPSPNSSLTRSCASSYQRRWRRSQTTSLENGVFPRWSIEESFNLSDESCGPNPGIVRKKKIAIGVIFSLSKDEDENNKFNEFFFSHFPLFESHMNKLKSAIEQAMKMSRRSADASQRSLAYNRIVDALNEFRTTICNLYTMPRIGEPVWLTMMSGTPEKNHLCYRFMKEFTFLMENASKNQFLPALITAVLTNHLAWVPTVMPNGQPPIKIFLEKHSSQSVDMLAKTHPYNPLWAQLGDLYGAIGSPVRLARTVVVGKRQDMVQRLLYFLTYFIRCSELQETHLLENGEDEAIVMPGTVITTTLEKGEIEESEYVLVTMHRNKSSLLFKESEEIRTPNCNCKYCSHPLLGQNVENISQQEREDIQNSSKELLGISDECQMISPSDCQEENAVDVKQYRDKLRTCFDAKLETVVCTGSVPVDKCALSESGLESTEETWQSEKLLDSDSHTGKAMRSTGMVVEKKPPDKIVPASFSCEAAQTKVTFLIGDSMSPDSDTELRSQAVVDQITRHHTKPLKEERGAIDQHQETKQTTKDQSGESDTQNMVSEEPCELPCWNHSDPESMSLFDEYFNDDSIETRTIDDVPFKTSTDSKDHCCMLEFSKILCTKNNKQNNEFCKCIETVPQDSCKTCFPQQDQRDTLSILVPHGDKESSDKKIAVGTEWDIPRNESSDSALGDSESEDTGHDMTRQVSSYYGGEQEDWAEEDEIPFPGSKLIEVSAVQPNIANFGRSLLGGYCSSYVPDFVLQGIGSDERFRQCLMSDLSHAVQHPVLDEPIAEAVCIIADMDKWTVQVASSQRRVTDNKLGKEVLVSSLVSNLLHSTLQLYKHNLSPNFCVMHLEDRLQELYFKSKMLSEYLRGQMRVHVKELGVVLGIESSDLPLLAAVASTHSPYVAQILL

Molecule: Hsp90α–His6 (from UniProt P07900 1-732) (natural protein)
- Kd [1]: 1.3 µM

B1: HA–FNIP2 (natural protein)
chain: MAPTLLQKLFNKRGSSGSSAAASAQGRAPKEGPAFSWSCSEFDLNEIRLIVYQDCDRRGRQVLFDSKAVQKIEEVTAQKTEDVPIKISAKCCQGSSSVSSSSSSSISSHSSSGGSSHHAKEQLPKYQYTRPASDVNMLGEMMFGSVAMSYKGSTLKIHYIRSPPQLMISKVFSARMGSFCGSTNNLQDSFEYINQDPNLGKLNTNQNSLGPCRTGSNLAHSTPVDMPSRGQNEDRDSGIARSASLSSLLITPFPSPSSSTSSSSSYQRRWLRSQTTSLENGIIPRRSTDETFSLAEETCSSNPAMVRRKKIAISIIFSLCEKEEAQRNFQDFFFSHFPLFESHMNRLKSAIEKAMISCRKIAESSLRVQFYVSRLMEALGEFRGTIWNLYSVPRIAEPVWLTMMSGTLEKNQLCQRFLKEFTLLIEQINKNQFFAALLTAVLTYHLAWVPTVMPVDHPPIKAFSEKRTSQSVNMLAKTHPYNPLWAQLGDLYGAIGSPVRLTRTVVVGKQKDLVQRILYVLTYFLRCSELQENQLTWSGNHGEGDQVLNGSKIITALEKGEVEESEYVVITVRNEPALVPPILPPTAAERHNPWPTGFPECPEGTDSRDLGLKPDKEANRRPEQGSEACSAGCLGPASDASWKPQNAFCGDEKNKEAPQDGSSRLPSCEVLGAGMKMDQQAVCELLKVEMPTRLPDRSVAWPCPDRHLREKPSLEKVTFQIGSFASPESDFESRMKKMEERVKACGPSLEASEAADVAQDPQVSRSPFKPGFQENVCCPQNRLSEGDEGESDKGFAEDRGSRNDMAADIAGQLSHAADLGTASHGAGGTGGRRLEATRGLYVKAAEGPVLEPVAPRCVQRGPGLVAGANIPCGDDNKKANFRTEGDIPRNESSDSALGDSDDEACASAMLDLGHGGDRTGGSLEVELPLPRSQSISTQNVRNFGRSLLAGYCPTYMPDLVLHGTGSDEKLKQCLVADLVHTVHHPVLDEPIAEAVCIIADTDKWSVQVATSQRKVTDNMKLGQDVLVSSQVSSLLQSILQLYKLHLPADFCIMHLEDRLQEMYLKSKMLSEYLRGHTRVHVKELGVVLGIESNDLPLLTAIASTHSPYVAQILL
- inhibition of the in vitro ATPase activity of isolated Hsp90α (PiPer Phosphate Assay; Hsp90α 291.5 nM) by 1.6 μM FNIP2 [2]: 8 fold

B2: FLCN–His6 (natural protein, UniProt Q8NFG4 1-579, looked up)
chain: MNAIVALCHFCELHGPRTLFCTEVLHAPLPQGDGNEDSPGQGEQAEEEEGGIQMNSRMRAHSPAEGASVESSSPGPKKSDMCEGCRSLAAGHPGYISHDKETSIKYVSHQHPSHPQLFSIVRQACVRSLSCEVCPGREGPIFFGDEQHGFVFSHTFFIKDSLARGFQRWYSIITIMMDRIYLINSWPFLLGKVRGIIDELQGKALKVFEAEQFGCPQRAQRMNTAFTPFLHQRNGNAARSLTSLTSDDNLWACLHTSFAWLLKACGSRLTEKLLEGAPTEDTLVQMEKLADLEEESESWDNSEAEEEEKAPVLPESTEGRELTQGPAESSSLSGCGSWQPRKLPVFKSLRHMRQVLGAPSFRMLAWHVLMGNQVIWKSRDVDLVQSAFEVLRTMLPVGCVRIIPYSSQYEEAYRCNFLGLSPHVQIPPHVLSSEFAVIVEVHAAARSTLHPVGCEDDQSLSKYEFVVTSGSPVAADRVGPTILNKIEAALTNQNLSVDVVDQCLVCLKEEWMNKVKVLFKFTKVDSRPKEDTQKLLSILGASEEDNVKLLKFWMTGLSKTYKSHLMSTVRSPTASESRN
notes: folliculin (FLCN), bacterially expressed; The name puts His6 behind the protein; source: bacterially expressed and purified; not shown: His6, N-terminal, kept
- binding result [3]: binds

B3: HA–FNIP1 (natural protein)
chain: T1 sequence (looked up)
- inhibition of the in vitro ATPase activity of isolated Hsp90α (PiPer Phosphate Assay; Hsp90α 291.5 nM) by 200 nM FNIP1 (189.8 nM in the results) [2]: 50 fold
